B1: Pistol ribozyme (parent)
chain: GGGUCGUUGUUCCAUAAUCGCGUGGAUAUGGCACGCAAGUUUCUACCGGGCACCGUAAAUGUCCGACUGGAGCCGUUCGGGCGGCUAUAAACAGACCUCAGGCCCGAAGCGUGGCGGCACCUGCCGCCGGUGGUAAAAAAGAUCGGAAGAGCACACGUCU

Variants of: B1
Test: aptazyme ON/OFF ratio, guanine; higher = stronger switching; co-transcriptional cleavage with and without guanine

| Variant | aptazyme ON/OFF ratio |
| --- | --- |
| U7C U8A G9A U10G U11C C12U C13G | 1.14 |
| U7C U8A G9A U10G U11C C12U C13A | 1.15 |
| U7C U8A G9A U10G U11C C12U C13U | 1.17 |
| U7C U8A G9A U10A U11C C12A C13G | 1.12 |
| U7C U8A G9A U10A U11C C12A C13A | 1.17 |
| U7C U8A G9A U10A U11C C12A C13U | 1.16 |
| U7C U8A G9A U10C U11G C12A | 1.05 |
| U7C U8A G9A U10C U11G C12G | 1.31 |
| U7C U8A G9A U10C U11G C12U | 1.22 |
| U7C U8A G9A U11C C13A | 1.04 |
| U7C U8A G9A U11C C13G | 1.02 |
| U7C U8A G9A U11C C13U | 1.05 |
| U7C U8A G9C U10A C12U C13U | 1.06 |
| U7C U8A G9C U10A C12U C13A | 1.09 |
| U7C U8A G9C U10A C12U C13G | 1.11 |
| U7C U8A G9A U10G U11A C12G C13G | 1.07 |
| U7C U8A G9A U10G U11A C12G C13U | 1.24 |
| U7C U8A G9A U10G U11A C12G C13A | 1.06 |
| U7C U8A G9A U10C U11C C12A C13U | 1.09 |
| U7C U8A G9A U10C U11C C12A C13A | 1.03 |
| U7C U8A G9A U10C U11C C12A C13G | 1.05 |
| U7C U8A G9A U10A C13G | 1.09 |
| U7C U8A G9A U10A C13U | 1.26 |
| U7C U8A G9A U10A C13A | 1.15 |

| Variant | aptazyme ON/OFF ratio |
| --- | --- |
| U7C U8A G9A U10C U11G C12G C13G | 1.12 |
| U7C U8A G9A U10C U11G C12G C13U | 1.11 |
| U7C U8A G9A U10C U11G C12G C13A | 1.24 |
| U7C U8A G9A U11C C12G C13U | 1.18 |
| U7C U8A G9A U11C C12G C13G | 1.12 |
| U7C U8A G9A U11C C12G C13A | 1.16 |
| U7C U8A G9A U10C U11G C12A C13U | 1.14 |
| U7C U8A G9A U10C U11G C12A C13G | 1.16 |
| U7C U8A G9A U10C U11G C12A C13A | 1.2 |
| U7C U8A G9A U10C U11C | 1.02 |
| U7C U8A G9A U10C U11G | 1.32 |
| U7C U8A G9A U10C U11A | 1.23 |
| U7C U8A G9C U10A C13A | 1.17 |
| U7C U8A G9C U10A C13G | 1.07 |
| U7C U8A G9C U10A C13U | 1.24 |
| U7C U8A G9A U10A U11A C12A | 1.2 |
| U7C U8A G9A U10A U11A C12G | 1.23 |
| U7C U8A G9A U10A U11A C12U | 1.19 |
| U7C U8A G9A U10G C12G | 1.25 |
| U7C U8A G9A U10G C12U | 1.29 |
| U7C U8A G9A U10G C12A | 1.15 |
| U7C U8A G9C U10A U11G C12G C13U | 1.1 |
| U7C U8A G9C U10A U11G C12G C13A | 1.1 |
| U7C U8A G9C U10A U11G C12G C13G | 1.15 |

| Variant | aptazyme ON/OFF ratio |
| --- | --- |
| U7C U8A G9A U10A U11G C12A C13A | 1.11 |
| U7C U8A G9A U10A U11G C12A C13G | 1.09 |
| U7C U8A G9A U10A U11G C12A C13U | 1.18 |
| U7C U8A G9A U10A C12A | 1.19 |
| U7C U8A G9A U10A C12U | 1.22 |
| U7C U8A G9A U10A C12G | 1.21 |
| U7C U8A G9A U10G U11G C12U | 1.39 |
| U7C U8A G9A U10G U11G C12G | 1.29 |
| U7C U8A G9A U10G U11G C12A | 1.11 |
| U7C U8A G9C U10A C12G C13G | 1.21 |
| U7C U8A G9C U10A C12G C13A | 1.11 |
| U7C U8A G9C U10A C12G C13U | 1.26 |
| U7C U8A G9A C12U C13G | 1.19 |
| U7C U8A G9A C12U C13U | 1.18 |
| U7C U8A G9A C12U C13A | 1.19 |
| U7C U8A G9A U11A C12A | 1.2 |
| U7C U8A G9A U11A C12U | 1.25 |
| U7C U8A G9A U11A C12G | 1.2 |
| U7C U8A G9C U10A U11C C12A C13U | 1.15 |
| U7C U8A G9C U10A U11C C12A C13A | 1.19 |
| U7C U8A G9C U10A U11C C12A C13G | 1.14 |
| U7C U8A G9A U10C C12U | 1.58 |
| U7C U8A G9A U10C C12A | 1.19 |
| U7C U8A G9A U10C C12G | 1.2 |

| Variant | aptazyme ON/OFF ratio |
| --- | --- |
| U7C U8A G9A U10C U11G C13U | 1.1 |
| U7C U8A G9A U10C U11G C13G | 1.13 |
| U7C U8A G9A U10C U11G C13A | 1.15 |
| U7C U8A G9A U11G C12G C13G | 1.12 |
| U7C U8A G9A U11G C12G C13U | 1.13 |
| U7C U8A G9A U11G C12G C13A | 1.12 |
| U7C U8A G9A U10C U11C C12U C13U | 1.04 |
| U7C U8A G9A U10C U11C C12U C13G | 1.04 |
| U7C U8A G9A U10C U11C C12U C13A | 1.03 |
| U7C U8A G9A U11A C12A C13A | 1.17 |
| U7C U8A G9A U11A C12A C13U | 1.08 |
| U7C U8A G9A U11A C12A C13G | 1.22 |
| U7C U8A G9A U10A U11G C13A | 1.16 |
| U7C U8A G9A U10A U11G C13U | 1.25 |
| U7C U8A G9A U10A U11G C13G | 1.02 |
| U7C U8A G9A U10G U11G C12U C13U | 1.2 |
| U7C U8A G9A U10G U11G C12U C13G | 1.14 |
| U7C U8A G9A U10G U11G C12U C13A | 1.11 |
| U7C U8A G9A U10G U11G C12A C13G | 1.14 |
| U7C U8A G9A U10G U11G C12A C13A | 1.19 |
| U7C U8A G9A U10G U11G C12A C13U | 1.23 |
| U7C U8A G9A U10C U11A C12G | 1.14 |
| U7C U8A G9A U10C U11A C12A | 1.12 |
| U7C U8A G9A U10C U11A C12U | 1.28 |

| Variant | aptazyme ON/OFF ratio |
| --- | --- |
| U7C U8A G9C U10A U11A C12G C13A | 1.1 |
| U7C U8A G9C U10A U11A C12G C13U | 1.16 |
| U7C U8A G9C U10A U11A C12G C13G | 1.12 |
| U7C U8A G9C C12A C13A | 1.15 |
| U7C U8A G9C C12A C13G | 1.05 |
| U7C U8A G9C C12A C13U | 1.15 |
| U7C U8A G9A U10G U11G C12G C13G | 1.23 |
| U7C U8A G9A U10G U11G C12G C13U | 1.2 |
| U7C U8A G9A U10G U11G C12G C13A | 1.21 |
| U7C U8A G9A U10G U11C C13U | 1 |
| U7C U8A G9A U10G U11C C13G | 1.05 |
| U7C U8A G9A U10G U11C C13A | 1.05 |
| U7C U8A G9A U10C U11A C12U C13U | 1.11 |
| U7C U8A G9A U10C U11A C12U C13G | 1.15 |
| U7C U8A G9A U10C U11A C12U C13A | 1.17 |
| U7C U8A G9A U10A U11G C12G | 1.12 |
| U7C U8A G9A U10A U11G C12A | 1.05 |
| U7C U8A G9A U10A U11G C12U | 1.14 |
| U7C U8A G9A U11G C12U C13U | 1.18 |
| U7C U8A G9A U11G C12U C13G | 1.14 |
| U7C U8A G9A U11G C12U C13A | 1.16 |
| U7C U8A G9A U10A U11C C12G C13U | 1.18 |
| U7C U8A G9A U10A U11C C12G C13A | 1.14 |
| U7C U8A G9A U10A U11C C12G C13G | 1.35 |

| Variant | aptazyme ON/OFF ratio |
| --- | --- |
| U7C U8A G9C U10A U11C C12G | 1.2 |
| U7C U8A G9C U10A U11C C12U | 1.08 |
| U7C U8A G9C U10A U11C C12A | 1.28 |
| U7C U8A G9A U11G C12U | 1.37 |
| U7C U8A G9A U11G C12G | 1.12 |
| U7C U8A G9A U11G C12A | 1.07 |
| U7C U8A G9A U10A C12A C13A | 1.19 |
| U7C U8A G9A U10A C12A C13U | 1.26 |
| U7C U8A G9A U10A C12A C13G | 1.18 |
| U7C U8A G9A U10G U11C C12U | 1.07 |
| U7C U8A G9A U10G U11C C12G | 1.21 |
| U7C U8A G9A U10G U11C C12A | 1.2 |
| U7C U8A G9C U10A U11A C13U | 1.19 |
| U7C U8A G9C U10A U11A C13G | 1.15 |
| U7C U8A G9C U10A U11A C13A | 1.2 |
| U7C U8A C12U C13U | 1.32 |
| U7C U8A G9A U10C U11A C13A | 1.2 |
| U7C U8A G9A U10C U11A C13U | 1.16 |
| U7C U8A G9A U10C U11A C13G | 1.08 |
| U7C U8A C13U | 1.71 |
| U7C U8A C13G | 1.11 |
| U7C U8A C13A | 1.31 |
| U7C U8A G9C U10A | 1.74 |
| U7C U8A G9A U11C C12U C13U | 1.2 |

| Variant | aptazyme ON/OFF ratio |
| --- | --- |
| U7C U8A G9A U11C C12U C13G | 1.09 |
| U7C U8A G9A U11C C12U C13A | 1.17 |
| U7C U8A G9C U10A U11G C12A C13A | 1.13 |
| U7C U8A G9C U10A U11G C12A C13G | 1.12 |
| U7C U8A G9C U10A U11G C12A C13U | 1.14 |
| U7C U8A G9C U10A U11C C12U C13U | 1.12 |
| U7C U8A G9C U10A U11C C12U C13A | 1.18 |
| U7C U8A G9C U10A U11C C12U C13G | 1.1 |
| U7C U8A G9A U10G U11C C12G C13U | 1.25 |
| U7C U8A G9A U10G U11C C12G C13A | 1.13 |
| U7C U8A G9A U10G U11C C12G C13G | 1.21 |
| U7C U8A G9A C13A | 1.15 |
| U7C U8A G9A C13G | 1.06 |
| U7C U8A G9A C13U | 1.18 |
| U7C U8A G9A U10G U11A C12U C13U | 1.06 |
| U7C U8A G9A U10G U11A C12U C13G | 1.12 |
| U7C U8A G9A U10G U11A C12U C13A | 1.11 |
| U7C U8A G9A U10A U11G C12U C13U | 1.22 |
| U7C U8A G9A U10A U11G C12U C13A | 1.21 |
| U7C U8A G9A U10A U11G C12U C13G | 1.17 |
| U7C U8A G9A U10C U11C C12A | 1.09 |
| U7C U8A G9A U10C U11C C12G | 1.09 |
| U7C U8A G9A U10C U11C C12U | 1.04 |

Reference: the RNAGym collection of RNA variant scans (doi:10.1021/acssynbio.7b00057)
